Biological target: endogenous EphB1 receptor of P19 cells (teratocarcinoma-derived, pluripotent murine cells) (murine) (UniProt Q8CBF3)
Assay: cell-based or functional assay

Chain of endogenous EphB1 receptor of P19 cells (teratocarcinoma-derived, pluripotent murine cells) (murine) (Q8CBF3 18-984): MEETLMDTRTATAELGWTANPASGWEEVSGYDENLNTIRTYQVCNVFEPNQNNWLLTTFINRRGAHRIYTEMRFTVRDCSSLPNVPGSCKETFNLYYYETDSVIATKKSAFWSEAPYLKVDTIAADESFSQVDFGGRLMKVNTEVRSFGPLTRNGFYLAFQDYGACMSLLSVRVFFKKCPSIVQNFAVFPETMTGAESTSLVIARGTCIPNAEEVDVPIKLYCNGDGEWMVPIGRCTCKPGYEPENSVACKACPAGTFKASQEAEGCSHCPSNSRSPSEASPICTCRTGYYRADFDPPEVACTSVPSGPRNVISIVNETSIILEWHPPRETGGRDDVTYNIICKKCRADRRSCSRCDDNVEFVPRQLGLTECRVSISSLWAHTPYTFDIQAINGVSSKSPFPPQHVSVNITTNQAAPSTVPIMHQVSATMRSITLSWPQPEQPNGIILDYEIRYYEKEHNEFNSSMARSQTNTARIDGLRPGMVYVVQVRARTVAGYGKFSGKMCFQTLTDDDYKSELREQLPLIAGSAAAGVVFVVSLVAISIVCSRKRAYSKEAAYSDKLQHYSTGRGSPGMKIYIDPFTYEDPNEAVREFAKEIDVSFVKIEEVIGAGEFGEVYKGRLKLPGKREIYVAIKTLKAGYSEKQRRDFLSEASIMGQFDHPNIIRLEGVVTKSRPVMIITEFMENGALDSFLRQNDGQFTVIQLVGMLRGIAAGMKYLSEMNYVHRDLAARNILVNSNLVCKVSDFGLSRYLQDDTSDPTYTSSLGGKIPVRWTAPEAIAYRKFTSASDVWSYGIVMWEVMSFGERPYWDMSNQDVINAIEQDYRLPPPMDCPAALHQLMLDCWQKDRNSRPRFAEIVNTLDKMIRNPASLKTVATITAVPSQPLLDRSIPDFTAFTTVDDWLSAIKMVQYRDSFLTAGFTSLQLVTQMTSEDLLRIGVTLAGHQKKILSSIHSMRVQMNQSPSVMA

preclustered multimeric ephrin-B1/Fc (ephrin-B1/Fc + anti-Fc) (from UniProt P98172 28-237; P01857 99-330) (Fc fusion)
% attached P19 cells in wells preadsorbed with ligand and fibronectin: 60%
